Test results from the RNAGym collection of RNA variant scans (doi:10.7554/elife.80360).

B1: CPEB3 Ribozyme (parent)
chain: GGGGGCCACAGCAGAAGCGUUCACGUCGCGGCCCCUGUCAGAUUCUGGUGAAUCUGCGAAUUCUGCUGU

Variants of: B1
Test: self-cleavage, relative activity (ratio to wild type); higher = more cleavage; co-transcriptional
G2C G31U gave a self-cleavage of 0.0216.
For G2C G37A, the self-cleavage was 0.0459.
G2C G37U showed a self-cleavage of 0.0045.
With G2C G41C the self-cleavage was 0.0808.
G2C G41U gave a self-cleavage of 0.101.
G2C G47C gave a self-cleavage of 0.0332.
For G2C G48C, the self-cleavage was 0.0429.
With G2C G48U the self-cleavage was 0.105.
In the case of G2C G50C, the self-cleavage is reported as 0.0266.
For G2C G50U, the self-cleavage was 0.0262.
G2C G56A gave a self-cleavage of 0.014.
In the case of G2C G56C, the self-cleavage is reported as 0.0446.
In the case of G2C G56U, the self-cleavage is reported as 0.0319.
With G2C G58C the self-cleavage was 0.0216.
Variant G2C G58U has a self-cleavage of 0.0467.
Variant G2C G65C has a self-cleavage of 0.0537.
For G2C G68A, the self-cleavage was 0.11.
With G2C G68C the self-cleavage was 0.114.
Variant G2C U20A has a self-cleavage of 0.0496.
For G2C U20C, the self-cleavage was 0.0285.
In the case of G2C U21A, the self-cleavage is reported as 0.0234.
With G2C U21G the self-cleavage was 0.0813.
For G2C U26A, the self-cleavage was 0.0328.
G2C U26C gave a self-cleavage of 0.0734.
G2C U26G gave a self-cleavage of 0.0511.
For G2C U36C, the self-cleavage was 0.063.
G2C U38C showed a self-cleavage of 0.0174.
With G2C U38G the self-cleavage was 0.0453.
G2C U43A showed a self-cleavage of 0.0772.
Work on G2C U43C yielded a self-cleavage of 0.0672.
For G2C U44C, the self-cleavage was 0.0257.
G2C U46A showed a self-cleavage of 0.0309.
G2C U46C showed a self-cleavage of 0.0336.
G2C U46G showed a self-cleavage of 0.0683.
Variant G2C U49A has a self-cleavage of 0.0745.
In the case of G2C U49C, the self-cleavage is reported as 0.0424.
For G2C U49G, the self-cleavage was 0.0393.
G2C U53G gave a self-cleavage of 0.0245.
In the case of G2C U55C, the self-cleavage is reported as 0.0587.
Variant G2C U55G has a self-cleavage of 0.0548.
In the case of G2C U61A, the self-cleavage is reported as 0.0082.
With G2C U61C the self-cleavage was 0.048.
G2C U61G gave a self-cleavage of 0.0289.
G2C U62A gave a self-cleavage of 0.0592.
For G2C U62G, the self-cleavage was 0.0405.
In the case of G2C U64A, the self-cleavage is reported as 0.0485.
Work on G2C U64C yielded a self-cleavage of 0.0536.
For G2C U64G, the self-cleavage was 0.137.
In the case of G2C U67A, the self-cleavage is reported as 0.0227.
Variant G2C U67C has a self-cleavage of 0.106.
For G2C U67G, the self-cleavage was 0.0872.
Work on G2C U69A yielded a self-cleavage of 0.111.
In the case of G2C U69C, the self-cleavage is reported as 0.147.
Variant G2U has a self-cleavage of 0.0871.
In the case of G2U A8C, the self-cleavage is reported as 0.0912.
Variant G2U A8G has a self-cleavage of 0.0691.
G2U A8U gave a self-cleavage of 0.0613.
In the case of G2U A10C, the self-cleavage is reported as 0.0945.
In the case of G2U A13C, the self-cleavage is reported as 0.09.
In the case of G2U A13U, the self-cleavage is reported as 0.052.
G2U A15C showed a self-cleavage of 0.085.
Variant G2U A15U has a self-cleavage of 0.0721.
Variant G2U A16U has a self-cleavage of 0.0525.
For G2U A23C, the self-cleavage was 0.0692.
With G2U A23U the self-cleavage was 0.133.
With G2U A40C the self-cleavage was 0.087.
For G2U A40U, the self-cleavage was 0.0492.
In the case of G2U A42C, the self-cleavage is reported as 0.0887.
For G2U A42G, the self-cleavage was 0.0791.
G2U A42U gave a self-cleavage of 0.0798.
G2U A51G gave a self-cleavage of 0.127.
Variant G2U A51U has a self-cleavage of 0.0841.
In the case of G2U A52C, the self-cleavage is reported as 0.0652.
With G2U A59C the self-cleavage was 0.05.
Variant G2U A59U has a self-cleavage of 0.0606.
Variant G2U A60C has a self-cleavage of 0.0553.
Variant G2U A60U has a self-cleavage of 0.0623.
G2U C6A gave a self-cleavage of 0.0497.
Variant G2U C6G has a self-cleavage of 0.0267.
G2U C6U gave a self-cleavage of 0.0652.
G2U C7A gave a self-cleavage of 0.0706.
In the case of G2U C7G, the self-cleavage is reported as 0.0573.
G2U C7U showed a self-cleavage of 0.0578.
In the case of G2U C9A, the self-cleavage is reported as 0.149.
G2U C9G gave a self-cleavage of 0.129.
G2U C12A gave a self-cleavage of 0.0547.
Variant G2U C12G has a self-cleavage of 0.0633.
With G2U C12U the self-cleavage was 0.13.
For G2U C18G, the self-cleavage was 0.00659.
G2U C22A showed a self-cleavage of 0.0323.
Work on G2U C22G yielded a self-cleavage of 0.039.
G2U C22U showed a self-cleavage of 0.039.
Work on G2U C24A yielded a self-cleavage of 0.0672.
For G2U C24G, the self-cleavage was 0.0682.
For G2U C24U, the self-cleavage was 0.038.
G2U C27G showed a self-cleavage of 0.0366.
In the case of G2U C27U, the self-cleavage is reported as 0.0348.
In the case of G2U C29A, the self-cleavage is reported as 0.0519.
Work on G2U C29G yielded a self-cleavage of 0.0442.
G2U C32G showed a self-cleavage of 0.0483.
G2U C32U showed a self-cleavage of 0.113.
With G2U C33A the self-cleavage was 0.0922.
G2U C33G showed a self-cleavage of 0.066.
For G2U C33U, the self-cleavage was 0.117.
For G2U C34A, the self-cleavage was 0.0756.
For G2U C34G, the self-cleavage was 0.0441.
Work on G2U C35A yielded a self-cleavage of 0.256.
G2U C39A showed a self-cleavage of 0.0535.
G2U C39G showed a self-cleavage of 0.045.
G2U C39U showed a self-cleavage of 0.0814.
For G2U C45A, the self-cleavage was 0.0935.
Variant G2U C45G has a self-cleavage of 0.0316.
G2U C45U gave a self-cleavage of 0.102.
Work on G2U C54G yielded a self-cleavage of 0.0751.
With G2U C54U the self-cleavage was 0.0892.
Work on G2U C57A yielded a self-cleavage of 0.0471.
With G2U C57G the self-cleavage was 0.0241.
For G2U C66G, the self-cleavage was 0.0712.
With G2U G3A the self-cleavage was 0.0298.
G2U G3C showed a self-cleavage of 0.0704.
Variant G2U G4C has a self-cleavage of 0.0426.
For G2U G4U, the self-cleavage was 0.0539.
With G2U G5U the self-cleavage was 0.0421.
For G2U G11A, the self-cleavage was 0.049.
G2U G11U gave a self-cleavage of 0.0835.
Work on G2U G14C yielded a self-cleavage of 0.0522.
For G2U G14U, the self-cleavage was 0.0888.
For G2U G17A, the self-cleavage was 0.0534.
In the case of G2U G19A, the self-cleavage is reported as 0.0693.
G2U G19C showed a self-cleavage of 0.0206.
Work on G2U G19U yielded a self-cleavage of 0.0651.
With G2U G25A the self-cleavage was 0.0393.
For G2U G25C, the self-cleavage was 0.0157.
G2U G25U showed a self-cleavage of 0.0175.
For G2U G28A, the self-cleavage was 0.0437.
G2U G28C showed a self-cleavage of 0.0331.
With G2U G30U the self-cleavage was 0.0322.
Work on G2U G31C yielded a self-cleavage of 0.061.
Variant G2U G31U has a self-cleavage of 0.0654.
G2U G37A gave a self-cleavage of 0.0373.
For G2U G37U, the self-cleavage was 0.0465.
Work on G2U G41A yielded a self-cleavage of 0.0653.
With G2U G47C the self-cleavage was 0.0826.
G2U G47U showed a self-cleavage of 0.059.
In the case of G2U G48A, the self-cleavage is reported as 0.0985.
Work on G2U G48U yielded a self-cleavage of 0.0675.
With G2U G50C the self-cleavage was 0.0712.
In the case of G2U G50U, the self-cleavage is reported as 0.0728.
G2U G56A gave a self-cleavage of 0.0814.
Variant G2U G56C has a self-cleavage of 0.0334.
For G2U G56U, the self-cleavage was 0.0789.
G2U G58A showed a self-cleavage of 0.0612.
Variant G2U G58C has a self-cleavage of 0.0697.
G2U G58U gave a self-cleavage of 0.0822.
In the case of G2U G65C, the self-cleavage is reported as 0.0564.
Work on G2U G65U yielded a self-cleavage of 0.0743.
Variant G2U G68A has a self-cleavage of 0.128.
Work on G2U G68C yielded a self-cleavage of 0.1.
Work on G2U G68U yielded a self-cleavage of 0.106.
G2U U20C showed a self-cleavage of 0.0329.
In the case of G2U U20G, the self-cleavage is reported as 0.0171.
G2U U21A gave a self-cleavage of 0.0838.
G2U U21G gave a self-cleavage of 0.0462.
Variant G2U U26G has a self-cleavage of 0.0848.
In the case of G2U U36A, the self-cleavage is reported as 0.023.
Variant G2U U36C has a self-cleavage of 0.0828.
G2U U38G showed a self-cleavage of 0.0441.
